Measured values reported in PMC4826628.

Target: Dlx5[Q178P] homeodomain (Homo sapiens, UniProt P56178 137-198, Q178P)
Assay: CD thermal denaturation

Chain of Dlx5[Q178P] homeodomain (P56178 137-198 Q178P): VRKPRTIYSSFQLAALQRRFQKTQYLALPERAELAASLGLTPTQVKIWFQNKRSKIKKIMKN

B1: 14-bp palindromic TAAT duplex (dsDNA)
DNA 1: CGACTAATTAGTCG
DNA 2: CGACTAATTAGTCG
B1: binds.
